Source: US20220204580A1 (AstraZeneca / MedImmune, published 2022)
Numbered stars: 1 amine (or outer) side, 2 acyl side, 3 side chain; on linkers, the order of the positions; unused ones are H or OH. Bridge positions count the residues as written; N and C are the ends. Square brackets hold non-standard residues; d marks the D form. Side chains are listed from the residue outwards. Ends that are not written are not given here. * marks the point of attachment. C18 diacid = O=C(O)CCCCCCCCCCCCCCCCC(=O)*; γGlu = O=C(O)[C@H](CCC(=O)[*:2])N[*:1]; Aib = CC(C)(N)C(=O)O

T1: human amylin receptor (calcitonin receptor co-expressed with receptor activity modifying protein, RAMP3) (human, UniProt P30988 25-474; O60896 24-148)
T1 sequence (looked up) 1: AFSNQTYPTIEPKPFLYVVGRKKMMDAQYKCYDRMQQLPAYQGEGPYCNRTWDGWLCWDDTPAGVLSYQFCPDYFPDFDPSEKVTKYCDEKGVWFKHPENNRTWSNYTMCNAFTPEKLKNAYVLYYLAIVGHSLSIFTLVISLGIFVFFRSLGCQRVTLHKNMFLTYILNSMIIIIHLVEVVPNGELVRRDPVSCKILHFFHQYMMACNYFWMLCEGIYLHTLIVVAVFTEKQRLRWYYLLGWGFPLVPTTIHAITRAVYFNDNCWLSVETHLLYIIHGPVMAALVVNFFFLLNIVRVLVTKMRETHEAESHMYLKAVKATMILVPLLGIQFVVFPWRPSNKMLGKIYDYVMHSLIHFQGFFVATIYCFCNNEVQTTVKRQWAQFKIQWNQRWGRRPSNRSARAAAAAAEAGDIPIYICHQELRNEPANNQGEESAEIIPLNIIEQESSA
T1 sequence (looked up) 2: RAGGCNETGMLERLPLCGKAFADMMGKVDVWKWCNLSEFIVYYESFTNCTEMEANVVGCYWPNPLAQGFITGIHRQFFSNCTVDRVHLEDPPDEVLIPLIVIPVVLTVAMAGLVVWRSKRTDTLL

T2: human calcitonin receptor (human, UniProt P30988 25-474)
T2 sequence (looked up): T1 sequence (looked up) 1

B1: Peptide 65 (SEQ ID NO: 65) (peptide)
peptide: K([γGlu-C18 diacid])KCNTATCATQRLANFLRHSS[Aib]NFGPILPPTNVGSNTY-NH2
modifications: disulfide 3-8; N-terminus assumed
SMILES: CC[C@H](C)[C@H](NC(=O)[C@@H]1CCCN1C(=O)CNC(=O)[C@H](Cc1ccccc1)NC(=O)[C@H](CC(N)=O)NC(=O)C(C)(C)NC(=O)[C@H](CO)NC(=O)[C@H](CO)NC(=O)[C@H](Cc1c[nH]cn1)NC(=O)[C@H](CCCNC(=N)N)NC(=O)[C@H](CC(C)C)NC(=O)[C@H](Cc1ccccc1)NC(=O)[C@H](CC(N)=O)NC(=O)[C@H](C)NC(=O)[C@H](CC(C)C)NC(=O)[C@H](CCCNC(=N)N)NC(=O)[C@H](CCC(N)=O)NC(=O)[C@@H](NC(=O)[C@H](C)NC(=O)[C@@H]1CSSC[C@H](NC(=O)[C@H](CCCCN)NC(=O)[C@@H](N)CCCCNC(=O)CC[C@H](NC(=O)CCCCCCCCCCCCCCCCC(=O)O)C(=O)O)C(=O)N[C@@H](CC(N)=O)C(=O)N[C@@H]([C@@H](C)O)C(=O)N[C@@H](C)C(=O)N[C@@H]([C@@H](C)O)C(=O)N1)[C@@H](C)O)C(=O)N[C@@H](CC(C)C)C(=O)N1CCC[C@H]1C(=O)N1CCC[C@H]1C(=O)N[C@H](C(=O)N[C@@H](CC(N)=O)C(=O)N[C@H](C(=O)NCC(=O)N[C@@H](CO)C(=O)N[C@@H](CC(N)=O)C(=O)N[C@H](C(=O)N[C@@H](Cc1ccc(O)cc1)C(N)=O)[C@@H](C)O)C(C)C)[C@@H](C)O
B2: Peptide 64 (SEQ ID NO: 64) (peptide)
peptide: K([γGlu-C18 diacid])CNTATCATQRLANFLVHSS[Aib]NFGPILPPTNVGSRTY-NH2
modifications: disulfide 2-7; N-terminus assumed
SMILES: CC[C@H](C)[C@H](NC(=O)[C@@H]1CCCN1C(=O)CNC(=O)[C@H](Cc1ccccc1)NC(=O)[C@H](CC(N)=O)NC(=O)C(C)(C)NC(=O)[C@H](CO)NC(=O)[C@H](CO)NC(=O)[C@H](Cc1c[nH]cn1)NC(=O)[C@@H](NC(=O)[C@H](CC(C)C)NC(=O)[C@H](Cc1ccccc1)NC(=O)[C@H](CC(N)=O)NC(=O)[C@H](C)NC(=O)[C@H](CC(C)C)NC(=O)[C@H](CCCNC(=N)N)NC(=O)[C@H](CCC(N)=O)NC(=O)[C@@H](NC(=O)[C@H](C)NC(=O)[C@@H]1CSSC[C@H](NC(=O)[C@@H](N)CCCCNC(=O)CC[C@H](NC(=O)CCCCCCCCCCCCCCCCC(=O)O)C(=O)O)C(=O)N[C@@H](CC(N)=O)C(=O)N[C@@H]([C@@H](C)O)C(=O)N[C@@H](C)C(=O)N[C@@H]([C@@H](C)O)C(=O)N1)[C@@H](C)O)C(C)C)C(=O)N[C@@H](CC(C)C)C(=O)N1CCC[C@H]1C(=O)N1CCC[C@H]1C(=O)N[C@H](C(=O)N[C@@H](CC(N)=O)C(=O)N[C@H](C(=O)NCC(=O)N[C@@H](CO)C(=O)N[C@@H](CCCNC(=N)N)C(=O)N[C@H](C(=O)N[C@@H](Cc1ccc(O)cc1)C(N)=O)[C@@H](C)O)C(C)C)[C@@H](C)O
B3: Peptide 69 (SEQ ID NO: 69) (peptide)
peptide: K([γGlu-C18 diacid])KCNTATCATQRLANFLVHSS[Aib]NFGPILPPTRVGSNTY-NH2
modifications: disulfide 3-8; N-terminus assumed
SMILES: CC[C@H](C)[C@H](NC(=O)[C@@H]1CCCN1C(=O)CNC(=O)[C@H](Cc1ccccc1)NC(=O)[C@H](CC(N)=O)NC(=O)C(C)(C)NC(=O)[C@H](CO)NC(=O)[C@H](CO)NC(=O)[C@H](Cc1c[nH]cn1)NC(=O)[C@@H](NC(=O)[C@H](CC(C)C)NC(=O)[C@H](Cc1ccccc1)NC(=O)[C@H](CC(N)=O)NC(=O)[C@H](C)NC(=O)[C@H](CC(C)C)NC(=O)[C@H](CCCNC(=N)N)NC(=O)[C@H](CCC(N)=O)NC(=O)[C@@H](NC(=O)[C@H](C)NC(=O)[C@@H]1CSSC[C@H](NC(=O)[C@H](CCCCN)NC(=O)[C@@H](N)CCCCNC(=O)CC[C@H](NC(=O)CCCCCCCCCCCCCCCCC(=O)O)C(=O)O)C(=O)N[C@@H](CC(N)=O)C(=O)N[C@@H]([C@@H](C)O)C(=O)N[C@@H](C)C(=O)N[C@@H]([C@@H](C)O)C(=O)N1)[C@@H](C)O)C(C)C)C(=O)N[C@@H](CC(C)C)C(=O)N1CCC[C@H]1C(=O)N1CCC[C@H]1C(=O)N[C@H](C(=O)N[C@@H](CCCNC(=N)N)C(=O)N[C@H](C(=O)NCC(=O)N[C@@H](CO)C(=O)N[C@@H](CC(N)=O)C(=O)N[C@H](C(=O)N[C@@H](Cc1ccc(O)cc1)C(N)=O)[C@@H](C)O)C(C)C)[C@@H](C)O
B4: Peptide 67 (SEQ ID NO: 67) (peptide)
peptide: K([γGlu-γGlu-C18 diacid])CNTATCATQRLANFLVHSS[Aib]NFGPILPPTRVGSNTY-NH2
modifications: disulfide 2-7; N-terminus assumed
SMILES: CC[C@H](C)[C@H](NC(=O)[C@@H]1CCCN1C(=O)CNC(=O)[C@H](Cc1ccccc1)NC(=O)[C@H](CC(N)=O)NC(=O)C(C)(C)NC(=O)[C@H](CO)NC(=O)[C@H](CO)NC(=O)[C@H](Cc1c[nH]cn1)NC(=O)[C@@H](NC(=O)[C@H](CC(C)C)NC(=O)[C@H](Cc1ccccc1)NC(=O)[C@H](CC(N)=O)NC(=O)[C@H](C)NC(=O)[C@H](CC(C)C)NC(=O)[C@H](CCCNC(=N)N)NC(=O)[C@H](CCC(N)=O)NC(=O)[C@@H](NC(=O)[C@H](C)NC(=O)[C@@H]1CSSC[C@H](NC(=O)[C@@H](N)CCCCNC(=O)CC[C@H](NC(=O)CC[C@H](NC(=O)CCCCCCCCCCCCCCCCC(=O)O)C(=O)O)C(=O)O)C(=O)N[C@@H](CC(N)=O)C(=O)N[C@@H]([C@@H](C)O)C(=O)N[C@@H](C)C(=O)N[C@@H]([C@@H](C)O)C(=O)N1)[C@@H](C)O)C(C)C)C(=O)N[C@@H](CC(C)C)C(=O)N1CCC[C@H]1C(=O)N1CCC[C@H]1C(=O)N[C@H](C(=O)N[C@@H](CCCNC(=N)N)C(=O)N[C@H](C(=O)NCC(=O)N[C@@H](CO)C(=O)N[C@@H](CC(N)=O)C(=O)N[C@H](C(=O)N[C@@H](Cc1ccc(O)cc1)C(N)=O)[C@@H](C)O)C(C)C)[C@@H](C)O
B5: Peptide 66 (SEQ ID NO: 66) (peptide)
peptide: K([γGlu-γGlu-C18 diacid])KCNTATCATQRLANFLRHSS[Aib]NFGPILPPTNVGSNTY-NH2
modifications: disulfide 3-8; N-terminus assumed
SMILES: CC[C@H](C)[C@H](NC(=O)[C@@H]1CCCN1C(=O)CNC(=O)[C@H](Cc1ccccc1)NC(=O)[C@H](CC(N)=O)NC(=O)C(C)(C)NC(=O)[C@H](CO)NC(=O)[C@H](CO)NC(=O)[C@H](Cc1c[nH]cn1)NC(=O)[C@H](CCCNC(=N)N)NC(=O)[C@H](CC(C)C)NC(=O)[C@H](Cc1ccccc1)NC(=O)[C@H](CC(N)=O)NC(=O)[C@H](C)NC(=O)[C@H](CC(C)C)NC(=O)[C@H](CCCNC(=N)N)NC(=O)[C@H](CCC(N)=O)NC(=O)[C@@H](NC(=O)[C@H](C)NC(=O)[C@@H]1CSSC[C@H](NC(=O)[C@H](CCCCN)NC(=O)[C@@H](N)CCCCNC(=O)CC[C@H](NC(=O)CC[C@H](NC(=O)CCCCCCCCCCCCCCCCC(=O)O)C(=O)O)C(=O)O)C(=O)N[C@@H](CC(N)=O)C(=O)N[C@@H]([C@@H](C)O)C(=O)N[C@@H](C)C(=O)N[C@@H]([C@@H](C)O)C(=O)N1)[C@@H](C)O)C(=O)N[C@@H](CC(C)C)C(=O)N1CCC[C@H]1C(=O)N1CCC[C@H]1C(=O)N[C@H](C(=O)N[C@@H](CC(N)=O)C(=O)N[C@H](C(=O)NCC(=O)N[C@@H](CO)C(=O)N[C@@H](CC(N)=O)C(=O)N[C@H](C(=O)N[C@@H](Cc1ccc(O)cc1)C(N)=O)[C@@H](C)O)C(C)C)[C@@H](C)O
B6: Peptide 68 (SEQ ID NO: 68) (peptide)
peptide: {C18 diacid-γGlu}-CNTATCATQRLANFLVHSS[Aib]NFGPILPPTRVGSNTY-NH2
modifications: disulfide 1-6
SMILES: CC[C@H](C)[C@H](NC(=O)[C@@H]1CCCN1C(=O)CNC(=O)[C@H](Cc1ccccc1)NC(=O)[C@H](CC(N)=O)NC(=O)C(C)(C)NC(=O)[C@H](CO)NC(=O)[C@H](CO)NC(=O)[C@H](Cc1c[nH]cn1)NC(=O)[C@@H](NC(=O)[C@H](CC(C)C)NC(=O)[C@H](Cc1ccccc1)NC(=O)[C@H](CC(N)=O)NC(=O)[C@H](C)NC(=O)[C@H](CC(C)C)NC(=O)[C@H](CCCNC(=N)N)NC(=O)[C@H](CCC(N)=O)NC(=O)[C@@H](NC(=O)[C@H](C)NC(=O)[C@@H]1CSSC[C@H](NC(=O)CC[C@H](NC(=O)CCCCCCCCCCCCCCCCC(=O)O)C(=O)O)C(=O)N[C@@H](CC(N)=O)C(=O)N[C@@H]([C@@H](C)O)C(=O)N[C@@H](C)C(=O)N[C@@H]([C@@H](C)O)C(=O)N1)[C@@H](C)O)C(C)C)C(=O)N[C@@H](CC(C)C)C(=O)N1CCC[C@H]1C(=O)N1CCC[C@H]1C(=O)N[C@H](C(=O)N[C@@H](CCCNC(=N)N)C(=O)N[C@H](C(=O)NCC(=O)N[C@@H](CO)C(=O)N[C@@H](CC(N)=O)C(=O)N[C@H](C(=O)N[C@@H](Cc1ccc(O)cc1)C(N)=O)[C@@H](C)O)C(C)C)[C@@H](C)O

Each binder was assayed against T1, human amylin receptor (calcitonin …) (assay: cell-based or functional assay).

Point of comparison: B4, “EC50 (cAMP production)” value 0.132 nM. Against it:
- B1 — 1.6-fold higher, 0.207 nM
- B2 — within 1.5-fold, 0.149 nM
- B3 — within 1.5-fold, 0.164 nM
- B5 — 3.2-fold higher, 0.418 nM
- B6 — within 1.5-fold, 0.192 nM

Point of comparison: B3, “Ratio (EC50 hCTR / EC50 hAMYR3)” value 10. Against it:
- B1 — higher, 31
- B2 — lower, 9
- B4 — higher, 30
- B5 — higher, 17
- B6 — lower, 9

Each binder was assayed against T2, human calcitonin receptor (assay: cell-based or functional assay).

Point of comparison: B2, “EC50 (cAMP production)” value 1.28 nM. Against it:
- B1 — 5-fold higher, 6.4 nM
- B3 — within 1.5-fold, 1.57 nM
- B4 — 3.1-fold higher, 4.01 nM
- B5 — 5.5-fold higher, 7.01 nM
- B6 — within 1.5-fold, 1.77 nM
